Earlier results on one substance are cited in PMC6417862.

The term Kd denotes the concentration at which binding is half-saturated.

The target in the data set is muscle actin (Oryctolagus cuniculus) (UniProt P68135).

cofilin (from UniProt Q03048): the Kd is below 0.3 µM.
